Source: the nanobody polyreactivity screen of Harvey et al. (2022)

Assay: yeast display, Sf9 membrane polyspecificity reagent, FACS + sequencing; frameworks hold sequencing errors
Procedure, shortened: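 Polyreactivity labels are assigned by the sorting gate from which each nanobody was recovered. The gates were low and high (top ~1%), set on anti-HA fluorescence for expression and streptavidin fluorescence for reagent binding. Before sorting, galactose-induced (36–48 hours) yeast display cells were stained for 1 hour at 4 °C with 10% biotinylated, detergent-solubilized Sf9 membrane reagent.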

Row | Sequence | polyreactivity (PSR sort gate)
1 | QVQLVESGGGLVQAGGSLRLSCAASGSTIDYYTMGWYRQEPGKERELVAAISWSGGNTYYADSVKGRFTISRDNAKNTVYLQMNSLKPEDTAVYYCNRVNAYWLRYDYWGQGTQVSVSS | high polyreactivity
2 | QVQLVESGGGLVQAGGSLRLSCAASGSTFSRNTMGWYRQAPGKERELVAAISKSGGRTYYADSVKGRFTISRDNAKNTVYLQMNSLKPEDTAVYYCNAAVYAYASDYWGQGTQVTVSS | high polyreactivity
3 | QIKLEESGGGLVQAGGSLRISCAASGSTYWDKVMGWYRQAPGKEMELVAAIDSGGSTYYADSVKGRFTISRDNAKNTVYLLMNSLKPEDTEVYYCNSRVDTPSPYDYWGQGTQVTVSS | low polyreactivity
4 | QVQLVESGGCLVQAGGSLRLSCAASGSTFVYYAMGWYRQAPGKESELVAAITSGGSTYYADSVKGRFTISRDNAKNTVYLQMNSLKPEDTAVYYCATDYTWFGYRYDYWGQGTQVTVSS | low polyreactivity
5 | QVQLVESGGGLVQAGGSLRLSCAASGRTFVTYAMGWYRQAPGKEREFVAAISRNGGSTYYADSVKGRFTISRDNAKNTVYLQMNSLKPEDTAVYYCAKGRPWYRGDYWGQGTQVTVSS | low polyreactivity
6 | QVQLEESGGGLVQAGGTLRLRCAASVIIYDDKTMGWYRQAPGKEMELVAPISSSRGSTYYADSVKGRFTISRDNAKNTVYLQMNSLKPEDTAVYYCAAAVYYTYPYIVFRNYPEFDYWGQGTQVSVSS | low polyreactivity
7 | QVQLVESGGGLVQAGGSLRLSCAASGFTLWYYAMGWYRQAPGKERELVAGINSGGRTYYADSVKGRFTISRDNAKNTVYLQMNSLKPEDTAVYNCNARAWSSISHNSYIMDYWGQGTQVTVSS | high polyreactivity
8 | QVQLVESGGGLVQAGGSLRLSCAASGRTFSYNAMGWYRQAPGKERELVAAITSSGGGTSYADSVKGRFTISRDNAKNTVYLQMNSLKPEDTAVYYCNRVLPHPDGYGVGARGYWGQGTQVSVSS | high polyreactivity
9 | QVQLVESGGGLVQAGGSLRLSCAASGRIVGYAMGWYRQAPGKERELVAAITGSTGSTYYADSVKGRFTISRDNAKNTVYLQMNSLKPEDTAVYYCATKYGRYVYYNHVTWMYYWGQGTQVTVSS | high polyreactivity
10 | HVQLVESGGGLVQAGGSLRLSCAASGRTFPRYAMGWYRQAPGTERELVAAISVRAGITYYADSVKGRFTISRDNAKNTVYLQMNSLKPEDTAVYYCAKDLWTTSYDEGDYWGQGTQVTVSS | low polyreactivity
11 | QVQLVESGGGLVQAGGSLRLSCAASGYIFLRNAMGWYRQAPGKERELVAAIRRTGGSTYYADSVKGRFTISRDNAKNTVYLQMNSLKPEDTAVYYCAKRSYTGYEYWGQGTQVTVSS | low polyreactivity
12 | QDQLVESGGELVQAGGSLRLSCASSGRTFSANGMGWYRQAPAKERELVAAITRSGGITYYADSVKGRFTISRVNAKNTVYLQMNSLKPEDTAVYYCAASVYSLSRRSWMDYWGQGTQVTVSS | low polyreactivity
13 | QVQLVESGGGLVQAGGSLRLSCAASGSIFGYNTMGWYRQAPGKERDLVADISVSGDDTYYADSVKGRFTISRDNAKITVYLQMNSLKPEDTAVYYCNADEYYGYYHTYDYWGQGTQVTVSS | low polyreactivity
14 | QVQLVESGGGLVQAGGSLRLSCAASGSTFDINAMGWYRQAPGKERELVAAINSDARTNYADSVKGRFTISRDNAKNTVYLLMNSLKPEDTAVYYCATDTSHSTYQYGYWGQGTQVSVSS | low polyreactivity
15 | QGQLVESGGGLVQAGGSLRLSCAASGGIFVGYPMGWYRQAPGKERELVASSDVRVGSTYYGDSVKGRFTISRDKAKNTVYLQMTSLKPEDTAVYSCEAGGRAVRIYWGYYRTSYDYWGLGTQVTVSS | low polyreactivity
16 | QVQLVESGGGLVQAGGSLRLSCAASGFIFTRYAMGWYRQAPGKERELVAAISASGGSTYYADSVKGRFTISRDNAKNTVYLQMKSLKPEETAVYYCAAVPYRYTYDYWGQGTQLTVSS | high polyreactivity
17 | QVQLVESGGGLVQAGGSLRLSCAASGITFSKYAMGWYRQAPGKERELVAAISQRGGSKYYADSVKGRFTISRDNAKNTVYLQMNSLKPEDTAVYYCNAEFYWSIIAYEYWGQGTQVTVSS | high polyreactivity
18 | QDQLVESGGGLVQAGGSLRLSCAASGIIFHFNDMGWYRQAPGKERELVAAITSGGSTNYADSVKGRFTISRDNAKNTLYLQMNSLKPEDTAVYYCAARRGLRLFAYRHGYWGQGTQVTVSS | low polyreactivity
19 | QVQLVESGGGLVQAVGSLRLSCAASGRIFVYNAMGWYRQAPGKERELVASITSSGGSTYYADSVKGRFTISRDNAKNTFYLQMNSLKPEDTAVYYCAADVQPDTRSTPEMDYWGQGTQVTVSS | low polyreactivity
20 | QVQLVESGGGLDQAGGSLRLSCAASGRIFTVYAMGGYRQAPGKERELVAAISGRGGRTYYADSVKGRFTISRDIAKNTVYLQMNSLKPEDTAVYYCNADTLTLTRPDGDIHTVWMDYWGQGTQVTVSS | low polyreactivity
21 | QVQLVESGGGLVQAGGSLRLSCAASGSTFGLYAMGWYRQAPGKERELVAAISSGGRTNYADSVKGRFTISRDNAKNTVYLQMNSLKPEDTAVYYCASAYIRGSRRYDYWGQGTQVTVSS | high polyreactivity

Row | Sequence | polyreactivity (PSR sort gate)
22 | QVQLVESGGGLDQAGGRLRLSCAASGRTFIVFAMGWYRQAPGKESELVAGITRGSTNYADSVKGRFTISRDNAKNTVYLQMNSLKPEDTEVYYCATEVYIWPWGTVYAFEYDYWGQGTQVTVSS | high polyreactivity
23 | QVQLVESGGGLVQAGGSLRLSCAASGRIFNYYAMGWYRQAPGKERELVAAISARGGSTYYADSVKGRFTISRDNAKNTVYLQMNSLKPEDNAVYYCAKRLYYSYGKYLLGAYYYWGQGTQVTVSS | high polyreactivity
24 | QVQLVESGGGLVQAGVSLRLSCAASGRTFVWYVKGWYRQAPGKERELVAAINRSGGRTYYADSVKGRFTISRDNAKNTVYLQMNSLKPEDTAVYYCAAARYVRYYSGYWGQGTQVTVSS | high polyreactivity
25 | QVQLVESGGGLVQAGGSLRLSCASSGITFPNYAMGWSRQAPGNERELVAAISSSGGSTYYADSVKGRFTISRDKAKNTGYLQMNSLKPEDTAVYYCATAINVYPRMDYGYWGQGTQVTVSS | low polyreactivity
26 | QVQLVESGGGLVQAGGSLRLSCAASGSTFRTYAMGWYRQAPGKERELVAVISASGGSTYYADSVKGRFTISRDNAKNTVYLQMNSLKPEDTAVYYCAVAYSRGRYYYWGQGTQVTVSS | high polyreactivity
27 | QVQLVESGGGLVQAGGSLRLSCAASGRIYCGYTMGWYRPAPGKERELDATITGNGAITRYADSVKGRFTISRDNAKYTVYLQMTSLKPEDTAVYYCAADSGREPKGPFRLTYWGQGTQVTVSS | high polyreactivity
28 | QVQLVESGGGLVQAGGSLRLSCAASGSIFWSYAMGWYRQAPGKERELVAVINWSGGSTYYADSVKGRFTISRDNAKNTVYLQMTSLKPEDTAVYYCNKDLGPTKRPFTFDYWGQGTQVTVSS | low polyreactivity
29 | QVQLVESRGGLVQAGGSLRLSCAASGRTFSNAMGWYRQAPGNERELVADISSGGSTNYADSVKGRFTISRDNAKNTVYLQMNSLKPEDTAVYYCAAVSGSRYGYSDDYWGQGTQVTVSS | low polyreactivity
30 | QVQLVESGGGLVQAGGSLRLSCAASGSTFVRNAMGWYRQAPGKERELVAAITSSGGSTYYADSVKGRFTISRDNAMKTVYLQMNSLKPEDTAVYYCNAELGSDTANYDYWGQGTQVTVSS | low polyreactivity
31 | QVQLVESGGGLVQAGGRLRLSCAASGFTFNSYVMGWYRQAPGKERELVAAITRSGDRTYYADSVKGRFTISRDNAKNTVYLQMNSLKPEDTAVYYCAATWSINYYGWYYYWGQGTQVTVSS | high polyreactivity
32 | QVQLVESCGGLVQAGGILRLSCAASGSTFRYYVMGWYRQAPGKERELVAAITSGGSKYYADSVKGRFTISRDNEQNTVYLQMNSLKPDDTAVYYCNKVYSRTFDYWGQGTQVTVSS | high polyreactivity
33 | QVQLVESGGGLVQAGGSLRLSCAASGSTFTSYAKGCYRQAPGKERELVAAISRRGTSTYYADSVKGRFTISRDNAKHTVYLQMNSLKPEDTAVYYCAADGYYCEYYYWGQGTQVTVSS | high polyreactivity
34 | QVQLVESGGGLVQAGGSLRLSCAASGSIFYPYAMGWYRKAPGKERELVAAIRRSGVDTYYADSVKGRFTISRDYAKNTYNLQMISLKPEDTAVYYCAADPYWFFAHYDSWGQGTQVTVSS | low polyreactivity
35 | QVQLVESGGGLVQAGGSLRLSCAASGRIVSRYAMGCYRQAPGKERELVADISSSGGSTYYADSVKGRFTISRDNAKNTVYLQMNSMKPEDTAVYDCAVRKKRQYTGDYWGQGTQETVSS | high polyreactivity
36 | QGQVVESGGGLVQAGGSLRLSCAASGSTFYGYAMGWYREAAGKERELVAAISRDGSTNYADSVKGRFTISRDNAKNTVYLQMNSLKPEDTAVYYCATRTKKRAPYKFYSWGQGTQVTVSS | high polyreactivity
37 | QVQLVESGGGLVQAGGSLRLSCAASGSTFYTYTAMGWYRQAPGKERELVAAITWRGGSTYYADSVKGRFTISRDNAKNTVYLHMNRLKPEDTSGYYCAADCVMTWWAYDYWGQGTQVTVSS | high polyreactivity
38 | QDQLVESGGGLVQAGGSLRLSCAASGRFFKWYAMGWYRQAPGKEREFVAGISSSGTSTYYADSVKGRFTISRDNAKKTVSLQRNSLKPEDTAVYYCNKLGSTLDFGYWGQGTQVTVSS | high polyreactivity
39 | QVQLVESGGGLVQAGGSLRLSCAASGRTFEGNAMGWYRQSPGKERELVAAIRWRGGRTYYADSVKGRFTISRDNAKNTVYLQLNSLNPEDTAVYYCAAAGLPPPDNDYWGQGTQVTVSS | low polyreactivity
40 | QVQLVESGGGLVQAGGSLRLSCAASGFTFSNYAMGWYRQAPGKERELVAAISRSGGSTYYADSVKGRFTISRDNAKNTVYLKMNSLKPEDTAVYYCNAVRYHARSGWSDYWGQGTQVTVSS | high polyreactivity
41 | QVQLVESVGGLVQAGGSLRLSCAASGFIFASYAMGWYRQAPGKERELVAAISWRGGSTYYADSVKGRFTISRDNAKNTVYLQMNSLKPEDTAVYYCKAYVYVGTGRGYDTLDYWGQGTQVTLSS | low polyreactivity
